assay: yeast display, Sf9 membrane polyspecificity reagent, FACS + sequencing; frameworks hold sequencing errors
Outline: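 In a synthetic yeast display library (Saccharomyces cerevisiae BJ5465), nanobody expression was induced with galactose for 36–48 hours. FACS gates were set low and high (top ~1%) using anti-HA fluorescence for expression and streptavidin fluorescence for binding of the Sf9 membrane reagent. Each polyreactivity label is drawn from the gate of origin.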

Sequence | polyreactivity (PSR sort gate)
QVQLVESAGGLVQAGGSLRLICAASGRTTPIYALGWYRQAPGKERELVASITRGTRTNYADSVKGRFTISRDNAKTTVYLQMNSLKPEDTAVYYCAAVSYSYSLNPYDYWGQGTQVTVSS | low polyreactivity
QVQLVESAGGLVQAGGSLRLICAASGSNFRRYAMGWYRQAPGKERELVAAITENTTSTNYADSVKGRFTISRDNAKNTVYLQMNSLKPEDTAVYYCAAETFATSGEMYYWGQGTQVTVSS | low polyreactivity
QVQLVESAGGLVQAGGSLRLICADSGSIFSNDAMGWYTQAPGKERELVAAITNGVSTNYADSVKGRFTISRDNAKNTVYLPMNSLIPEDTAVYYCAAVSRSYYNSYNYWGQGTQVTVSS | high polyreactivity
QVQLVESAGGLVQAGGSLRLSCAASGFIINKYTMGWYRQAPGKERELVAAITWSGGTTYYADSVKGRFTISRDNAKNTVYLQMNSLKPEDTAVYYCAAYYYRGRVGAYDYWGQGTQVTVSS | high polyreactivity
QVQLVESAGGLVQAGGSLRLSCAASGFTFGKNSMGWYRQAPGKERELVAAISGSGSRTYYADSVKGRFTISRDNAKNTVYLQMNSLKPEDTAVYYCAAAVTGSYASDYWGQGTQVTVSS | high polyreactivity
QVQLVESAGGLVQAGGSLRLSCAASGGIFDRYAMGWYRQAPGKERELVAAITSGGSTNYADSVKGRFTISRDNAKNTVYLQMNSLKPEDTAVYYCNADLGILSGVDEGPTFREYDYWGQGTQVTLSS | low polyreactivity
QVQLVESAGGLVQAGGSLRLSCAASGGTFSTYAIGWYRQAPGKEREFVAAITRSGTSTYYADSVKGRFTISRDNAKNTVYLQMNSLKPEDTAVYYCAAGVYSFRYDYWGQGTQVTVSS | low polyreactivity
QVQLVESAGGLVQAGGSLRLSCAASGITFWYYTMGWYRQAPGKERELVAAINGRGGSTYYADSVKGRFTISRDNAKNTVYLQMNSLKPEDTAVYYCNAVGIWFQIRLIVPYDYWGQGTQVTVSS | low polyreactivity
QVQLVESAGGLVQAGGSLRLSCAASGITIVRYARGWSRQAPGKERELVAAINRSGGSTYDADSVKGRFTISRDNAKNTVYLQMNSLKPEDTAVYYCAARLYGKYDPPGYYYWGQGTQVTVSS | high polyreactivity
QVQLVESAGGLVQAGGSLRLSCAASGLIFYSYAMGWYRQAPGKERELVASITTRGSSTYYADSVKGRFTISRDNAKNTVYLQMNSLKPEDTAVYYCAADRLYYRYPPDTGYGYWGQGTQVTVSS | low polyreactivity
QVQLVESAGGLVQAGGSLRLSCAASGNMLIGKVMGMYRQAPGKERELVAAITSGGDTYYADSVKGRYTISRDNAKNTVYLQMNSLKPEDTAVYYCAADRPGQPKYEYWGQCTQVTVSS | low polyreactivity
QVQLVESAGGLVQAGGSLRLSCAASGPTFAYNDMGWSRQAPGKERELVAAISWSDGTTYYADSVKGRFTISRDNAKNTVYLQMNSLKPEVTAVYYCAGESYPSEVASYVSEYDYWGQGTQVTVSS | low polyreactivity
QVQLVESAGGLVQAGGSLRLSCAASGRIFRYYAMGWYRQAPGKERELFAAISRSGASTYYADSVKGRFTISRDNAKNTVYLQMNSLIPEDTAVYYCAAGYWPGYSQTYRGGYWGQCTQVTVSS | high polyreactivity
QVQLVESAGGLVQAGGSLRLSCAASGRIFRYYVMGWYRQAPGKEREFVASISGRGASTYYADSVKGRFTISRDNAKNTVYLQMNSLKPEDTAVYYCNADVWLLSYFPEYDYWGQGTQVTVSS | low polyreactivity
QVQLVESAGGLVQAGGSLRLSCAASGRIFSYKAMGWYRQAPGKQRELVAAISYSGGRTYYADSVKGRFTISRDNAKNTVYLQMYSLKPEDTAVYYCAAEAHLAGFYRYYGGYGYDYWGQGTQVTVSS | high polyreactivity
QVQLVESAGGLVQAGGSLRLSCAASGRIFYYNAMGWYRQAPGKERELVAGITSRGGSTYADSVKGRFTISRDNAKNTVYLQMNSLKPEDTAVYYCAAVYRLWGKDYDYWGQGTQVTVSS | high polyreactivity
QVQLVESAGGLVQAGGSLRLSCAASGRILVRNAMGWYRQAPGTERELVAAIRRGTSTNYADSVKGRFTISRDNAKNTVYLQMNSLKPEDTAVYYCAVRAASPYLDGAWRRRYDYWGQGTQVTVSS | low polyreactivity
QVQLVESAGGLVQAGGSLRLSCAASGRTFAYNAMGWYRQAPGKERELVADITSGGSTYYADSVKWRFTISRDNAKNTVYLQMNSLKPEDTAVYYCNKLYRGGYGYWGQGTQVTVSS | high polyreactivity
QVQLVESAGGLVQAGGSLRLSCAASGRTFGKYAMGWYRQAPGKERELVAAITGGGGTKYADSVKGRFTISRDNAKNTVYLQKNSLKPEDTAVYYCAAASGSRRHGYWGQGTQVTVSS | high polyreactivity
QVQLVESAGGLVQAGGSLRLSCAASGRTLRGYAMGWYRQAPGKERELVAAITWSGGSTYYADSVKGRFTISRDNAKNTVYLQMNSLKPEDTAVYYCNARSYPDLYDYWGQGTQVTVSS | high polyreactivity
QVQLVESAGGLVQAGGSLRLSCAASGRTLTGNALGWYRQAPGKESELVAAITARGGSTKYADSVKGRFTISRDNAKNTVYFLMNSLKPEDTAVFYCAAGCWYYLHMDYWGQGTQVTVSS | high polyreactivity
QVQLVESAGGLVQAGGSLRLSCAASGRTLTRYTMGWYRQAPGKERELVAAITSGGSTYYADSVKGRFTISRDNAKNTVYLQKNSLKPEDTAVYYCNARTPWWSFSITEYGYWGQGTLVTVSS | high polyreactivity

Sequence | polyreactivity (PSR sort gate)
QVQLVESAGGLVQAGGSLRLSCAASGSIFAGNVMGWYRQEPGKEWELVAAISRRGGRTYYADSVKGRFTISRDNAKNTVYLQMNSLKPEETAVYYCAARRDPVLCKSDYWGQGTQVTVSS | high polyreactivity
QVQLVESAGGLVQAGGSLRLSCAASGSIFKDYAMGWYRQAPGKERELVAAITSGTSTTYADSVKGRFTISRDNAKYTVYLPMNSLKPDDTAVYYCAADYYLRKTRFESWGQGTQVTVSP | low polyreactivity
QVQLVESAGGLVQAGGSLRLSCAASGSIFPGYAMGWYRQAPVKERELVATITWSGGSTYYADSVKGRFTISRDNAKNSVYLQMNILKPEDTAVYYCNADSNWYYQWNYYGLYDYWGQGTQVTVSS | low polyreactivity
QVQLVESAGGLVQAGGSLRLSCAASGSIFRLNALGWSRQQPGQVRELVAAITWSDSSTYYADSVKGRFTISRDTAKNTVYLQMNSLKPEDTAVSYCAGDPQSYKYDYWGQGTQVTVSS | low polyreactivity
QVQLVESAGGLVQAGGSLRLSCAASGSIFVPNVMGWYRQAPGKERELVATITRSTSTYYADSVKGRFTISRDNAKNTVYLQMNSLKPEDTAVYYCAAVWEWYSKYTRFYYWGQGTQVTVSS | high polyreactivity
QVQLVESAGGLVQAGGSLRLSCAASGSIFVRNAMGWYRQAPGKERELVARISSRGGSTYYADSVKGRFTISRDNAKNTVYLQMISLKPEDTAVYYSNRDRTWQTNDYWGQGTQVTVSS | high polyreactivity
QVQLVESAGGLVQAGGSLRLSCAASGSILYKNAMGWYRQAPGKERELVAAIRSGGSTYYADSVKGRFTISRDNAINTVYLQMNSLKPEDTAVYYCYARTFSHGRYDYWGQGTQVTVSS | low polyreactivity
QVQLVESAGGLVQAGGSLRLSCAASGSTFRYYAMGWSRQAPGKESELVAVISTSGNTYYADSVKGRFTISRDNAKNSVYLQMNSLIPEDTAVYYCAARGVGGQISQEYDYWGKGTQVTVSS | low polyreactivity
QVQLVESAGGLVQAGGSLRLSCAASGSTFVTYDMGWYRQAPGKERELVAAIRYSDGSTYYADSVKGRFTISRDNAKNTVYRQMNSLKPEDTAVYYCAADLGNYDYYGYVRYDYWGQGTQVTVSS | low polyreactivity
QVQLVESAGGLVQAGGSLRLSCAASGSTFYPNAMGWYRQAPGKERELVAAISRGTRTKYADSVKGRFTISRDNAKNTVYLQMNSMKPEDTAVYYCAPLTYQSYWSVDGYYYWGQGTQVTVSS | high polyreactivity
QVQLVESAGGLVQAGGSLRLSCADSGSISTVYAMGWYRPAPGKERELVAAISWSGGYTYYADTVKGRFTISRDNEKNTVYLQMNSVKPEDTAFYYCDAEGYLVGSRWGPCYGDYWGQGTQVTGSS | high polyreactivity
QVQLVESAGGLVQAGGSLRLSCAHSGITYTRYAMGWYRHAPGKESELVAAISSGGRTNYADSVKGRFTISRDNAKNTVYLQMNTLKPEDTAVYYCNAAGHRWYPRYHYWGQGTQVTVSS | high polyreactivity
QVQLVESAGGLVQAGGSLRLSCAPSGSTFYHNVMGWYSPAPGKERELVASIDTGDSTNYADSVKGRFTISRDNAKNTVYLQMNSLKPEDTAVYYCARSQAVYDGWFAKFGYWGQGTQVTVSS | low polyreactivity
QVQLVESAGGLVQAGGSLRLSCASSGSTFQKYAMGWYRQAPGKESELVARISSGGSTTNADYVKGRFTISRDNAKYTVYIQMTSLKPEDTAVYYCAARLVVAQPHQWVVYLNTYYYWGQGTQVTVSS | high polyreactivity
QVQLVESAGGLVQAGGSLRLSCDASISSINAMGWYRQAPGKEREMVAAIRWSGSSTYYADSVKGRFTISRDNAKNTVYLQMNSLKPEDTAVYYCAARWYARSLTRFNYWGQGTQVTVSS | high polyreactivity
QVQLVESAGGLVQAGGSLRLSCYASGRIFPAYAMGWYRQAPGKERELVASIRRGGITYADSVKGRFTISRDNAKNTVYLQMNSLKPEDTAVYYCNADSRGWGYHMDYWGQGTQVTVSS | low polyreactivity
QVQLVESAGGLVQAGGSLSLSCAASGILVYNAMGWYRQAPGKQRELVAAISARGGRTYYADSVKWRFTISRDNAKNTVYLQMNSLKTEDTAVSYCATLETTGVNYWGQGTQVTVSS | high polyreactivity
QVQLVESAGGLVQAGGSLSLSCAASGLTFPWYAMGWYRQAPGKERELVAAISSSSGSTYYADSVKGRFTISRDNAKNTVYLQMNSLKPEDTAVYYCAAGYPGGHYDYWGQGTQVTVSS | high polyreactivity
QVQLVESAGGLVQAGGSLSLSCAATGITFPYVMGWYRQAPGKQRELVAAISRTGTSTYYADSVKGRFTISRDNAKNTVYLQMNSLKPEDTAVYYCAARTQTQVYPAYGYWGQGTQVTVSS | high polyreactivity
QVQLVESAGGLVQAGGTLRLSCAATGRIVYLNAMGWYRQAPGKERELVAAISGSTGSTYYADSVKGRFTISRDNAKNTVYLQMMSLKPEDTAVYYCNAGGVYDEFNYWGQGTQVTVSS | low polyreactivity
QVQLVESAGGLVQAGVSLRLSCAASGSIYPGSAMRWYRQAPGNERELVAAITFGGGITYYADSVKGRFTISRDNAKYTVYLQMNSLKPEDSAVYYCAAKSPRILLDYWGQGTQVTVSS | low polyreactivity
